We go through two molecules from US20230105714A1.

Test [1] addresses cynomolgus TIM-3 ECD Fc fusion (made in-house) (cynomolgus monkey (Macaca fascicularis); human). Description: SPR (IBIS MX96), TIM-3 ECD-Fc captured, Fab injected 1-100 nM, 1:1 fit.
Test [2] deals with cynomolgus TIM-3 Fc fusion antigen (Sino Biologicals) (cynomolgus monkey). Description: ELISA, EC50 on cynomolgus TIM-3 against EC50 on human TIM-3.
Test [3] shares this target. Nature of the test: ELISA, TIM-3 Fc fusion coated at 1 ug/ml, antibody titrated from 1000 nM.

Sequence of cynomolgus TIM-3 Fc fusion antigen (Sino Biologicals) (cynomolgus monkey) (chain, as listed by the source limits assumed): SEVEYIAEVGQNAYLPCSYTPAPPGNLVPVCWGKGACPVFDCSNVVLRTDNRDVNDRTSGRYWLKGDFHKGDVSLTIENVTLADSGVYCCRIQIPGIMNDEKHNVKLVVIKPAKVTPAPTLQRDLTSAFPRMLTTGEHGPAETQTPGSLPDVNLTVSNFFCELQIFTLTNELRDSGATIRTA
Sequence of cynomolgus TIM-3 ECD Fc fusion (made in-house) (cynomolgus monkey (Macaca fascicularis); human) (chain, as listed by the source limits assumed): as above

Regarding “Fab fragment of 18564 ABTIM3 (reference analogue)”, in test [1], the Kd amounted to 25 nM.

B1: antibody 19416 (antibody, V domains shown)
VH: QVQLVESGPGLVKPSQTLSLTCTVSGGSINSGGYYWSWIRQHPGKGLEWIGYIYYSGSIYYNPSLRSRLTISVDTSKNQFSLKLSSVTAADTAVYYCATPYYYGSGSYGDYWGQGTLVTVSS
VL: DIQMTQSPATLSLSPGERATLSCRASQSVNNYLAWYQQKPGQAPRLLIYDASNRATGIPARFSGSGSGTDFTLTISSLEPEDFAVYYCQQRSNWPITFGQGTRLEIK
With B1, in test [2], the Ratio Cynomolgus/Human EC50 stood at 47. In addition, in test [3], the EC50 is 9.42 nM.
